Reference: paper PMC11480844 (2024)

B1: H2-Kb / Ed28 (parent complex)
chain 1: AQSVTQPDARVTVSEGASLQLRCKYSYFGTPYLFWYVQYPRQGLQLLLKYYPGDPVVQGVNGFEAEFSKSNSSFHLRKASVHWSDWAVYFCAVSPGSGGKLTLGAGTRLQVNL
chain 2: DSGVVQSPRHIIKEKGGRSVLTCIPISGHSNVVWYQQTLGKELKFLIQHYEKVERDKGFLPSRFSVQQFDDYHSEMNMSALELEDSAMYFCASSPRASDYTFGSGTRLLVI
chain 3: not shown
chain 4: IQKTPQIQVYSRHPPENGKPNILNCYVTQFHPPHIEIQMLKNGKKIPKVEMSDMSFSKDWSFYILAHTEFTPTETDTYACRVKHDSMAEPKTVYWDRDM
chain 5: SIINFEKL
B2: H2-Kb / F4 (parent complex)
chain 1: QQQVRQSPQSLTVWEGETAILNCSYEDSTFNYFPWYQQFPGEGPALLISIRSVSDKKEDGRFTIFFNKREKKLSLHITDSQPGDSATYFCAAMSNYNVLYFGSGTKLTVEP
chain 2: ETAVFQTPNYHVTQVGNEVSFNCKQTLGHDTMYWYKQDSKKLLKIMFSYNNKQLIVNETVPRRFSPQSSDKAHLNLRIKSVEPEDSAVYLCASSARQNSPLYFAAGTRLTVT
chain 3: not shown
chain 4: B1 chain 4
chain 5: SIINFEKL

Variants of: B1
Test: % of reporter cells activated (NFAT-GFP), raw
Further: test concentration or dose not given here.

Going from chain 5 K7E to chain 5 I2T, the ratio to parent rises from 0.013 to 1.34.

Going from chain 5 S1M to chain 5 L8Y, the ratio to parent falls from 0.908 to 0.902.

First: chain 5 L8N
Second: chain 5 F5Q
The ratio to parent of the first is higher: 0.594 for the first, 0.455 for the second.

Compared with chain 5 F5I, chain 5 F5S is higher in ratio to parent: 0.388 for the first, 0.867 for the second.

Compared with chain 5 E6M, chain 5 N4G is lower in ratio to parent: 0.0743 for the first, 0.00642 for the second.

First: chain 5 N4W
Second: chain 5 N4S
The ratio to parent of the first is lower: 0.00775 for the first, 0.0271 for the second.

Variants of: B2
Test: % of reporter cells activated (NFAT-GFP), raw

Going from chain 5 I2Q to chain 5 I2H, the ratio to parent falls from 0.181 to 0.0964.

Compared with chain 5 I2P, chain 5 I2T is higher in ratio to parent: 0.16 for the first, 0.773 for the second.

First: chain 5 I2S
Second: chain 5 I2K
The ratio to parent of the first is higher: 1.05 for the first, 0.0728 for the second.

First: chain 5 I2C
Second: chain 5 I2L
The ratio to parent of the first is higher: 2.17 for the first, 1.25 for the second.

First: chain 5 I2G
Second: chain 5 I2F
The ratio to parent of the first is higher: 1.45 for the first, 0.955 for the second.

Going from chain 5 I2W to chain 5 I2R, the ratio to parent falls from 0.641 to 0.393.

Compared with chain 5 I2Y, chain 5 I2E is higher in ratio to parent: 0.108 for the first, 0.807 for the second.

Going from chain 5 I2D to chain 5 I3Q, the ratio to parent falls from 0.406 to 0.0638.

Going from chain 5 I3W to chain 5 I3F, the ratio to parent rises from 0.358 to 1.

Compared with chain 5 I3T, chain 5 I3M is lower in ratio to parent: 0.204 for the first, 0.125 for the second.

Going from chain 5 I3R to chain 5 I3K, the ratio to parent rises from 0.0634 to 0.262.

Going from chain 5 I3G to chain 5 I3S, the ratio to parent rises from 0.0625 to 0.106.

First: chain 5 I3N
Second: chain 5 I3P
The ratio to parent of the first is higher: 0.188 for the first, 0.083 for the second.

Going from chain 5 I3H to chain 5 I3D, the ratio to parent rises from 0.0214 to 0.0344.

Going from chain 5 I3V to chain 5 I3Y, the ratio to parent falls from 1.74 to 0.517.

First: chain 5 I3C
Second: chain 5 I3L
The ratio to parent of the first is lower: 0.558 for the first, 2.05 for the second.

Compared with chain 5 I3E, chain 5 E6H is lower in ratio to parent: 0.0777 for the first, 0.0263 for the second.

Going from chain 5 E6W to chain 5 E6Y, the ratio to parent falls from 0.113 to 0.0161.

First: chain 5 E6A
Second: chain 5 E6V
The ratio to parent of the first is higher: 0.05 for the first, 0.0232 for the second.

Going from chain 5 E6R to chain 5 E6I, the ratio to parent falls from 0.0897 to 0.00942.

First: chain 5 E6K
Second: chain 5 E6Q
The ratio to parent of the first is higher: 0.118 for the first, 0.0246 for the second.

First: chain 5 E6M
Second: chain 5 E6F
The ratio to parent of the first is lower: 0.0214 for the first, 0.033 for the second.

Going from chain 5 E6P to chain 5 E6L, the ratio to parent falls from 0.0487 to 0.0121.

Going from chain 5 E6D to chain 5 E6T, the ratio to parent falls from 0.987 to 0.0219.

Going from chain 5 E6S to chain 5 E6G, the ratio to parent falls from 0.0357 to 0.0237.

First: chain 5 E6N
Second: chain 5 E6C
The ratio to parent of the first is lower: 0.0563 for the first, 0.537 for the second.

Compared with chain 5 K7N, chain 5 K7D is lower in ratio to parent: 0.254 for the first, 0.101 for the second.

First: chain 5 K7Q
Second: chain 5 K7A
The ratio to parent of the first is higher: 0.417 for the first, 0.222 for the second.

Compared with chain 5 K7Y, chain 5 K7M is lower in ratio to parent: 1.03 for the first, 0.651 for the second.

Going from chain 5 K7G to chain 5 K7I, the ratio to parent rises from 0.234 to 0.771.

First: chain 5 K7F
Second: chain 5 K7L
The ratio to parent of the first is lower: 0.726 for the first, 0.85 for the second.

First: chain 5 K7P
Second: chain 5 K7R
The ratio to parent of the first is lower: 0.0549 for the first, 1.23 for the second.

Compared with chain 5 K7C, chain 5 K7W is higher in ratio to parent: 0.377 for the first, 0.517 for the second.

Compared with chain 5 K7T, chain 5 K7S is lower in ratio to parent: 0.628 for the first, 0.261 for the second.

Going from chain 5 K7H to chain 5 K7E, the ratio to parent falls from 1.35 to 0.105.

First: chain 5 K7V
Second: chain 5 F5L
The ratio to parent of the first is higher: 0.927 for the first, 0.554 for the second.

Compared with chain 5 F5I, chain 5 F5T is lower in ratio to parent: 1.36 for the first, 1.19 for the second.

Compared with chain 5 F5K, chain 5 F5V is higher in ratio to parent: 0.109 for the first, 1.38 for the second.

Going from chain 5 F5N to chain 5 F5W, the ratio to parent falls from 0.225 to 0.083.

Compared with chain 5 F5H, chain 5 F5S is lower in ratio to parent: 1.01 for the first, 0.767 for the second.

First: chain 5 F5E
Second: chain 5 F5R
The ratio to parent of the first is lower: 0.0661 for the first, 0.285 for the second.

Compared with chain 5 F5M, chain 5 F5A is lower in ratio to parent: 1.29 for the first, 0.967 for the second.

Compared with chain 5 F5Q, chain 5 F5Y is higher in ratio to parent: 0.517 for the first, 0.526 for the second.

Going from chain 5 S1H to chain 5 S1T, the ratio to parent falls from 0.0509 to 0.0232.

First: chain 5 S1A
Second: chain 5 S1F
The ratio to parent of the first is lower: 0.0272 for the first, 0.0348 for the second.

First: chain 5 S1C
Second: chain 5 S1V
The ratio to parent of the first is lower: 0.0254 for the first, 0.0638 for the second.

Going from chain 5 S1W to chain 5 S1M, the ratio to parent rises from 0.0183 to 0.0268.

Compared with chain 5 S1Q, chain 5 S1K is higher in ratio to parent: 0.0344 for the first, 0.0638 for the second.

Going from chain 5 S1I to chain 5 S1L, the ratio to parent rises from 0.0174 to 0.0263.

Going from chain 5 S1P to chain 5 S1Y, the ratio to parent rises from 0.0438 to 0.0768.

Going from chain 5 S1N to chain 5 S1E, the ratio to parent falls from 0.0308 to 0.029.

Going from chain 5 S1G to chain 5 S1D, the ratio to parent falls from 0.188 to 0.0189.

First: chain 5 N4M
Second: chain 5 N4Q
The ratio to parent of the first is higher: 0.021 for the first, 0.0116 for the second.

Going from chain 5 N4S to chain 5 N4C, the ratio to parent rises from 0.0317 to 0.0522.

Compared with chain 5 N4A, chain 5 N4V is higher in ratio to parent: 0.0308 for the first, 0.0362 for the second.

Compared with chain 5 N4G, chain 5 N4L is lower in ratio to parent: 0.225 for the first, 0.0594 for the second.

Going from chain 5 N4H to chain 5 N4R, the ratio to parent falls from 0.0344 to 0.0277.

Going from chain 5 N4I to chain 5 N4F, the ratio to parent rises from 0.0205 to 0.0339.

Compared with chain 5 N4D, chain 5 N4Y is higher in ratio to parent: 0.0277 for the first, 0.0299 for the second.

First: chain 5 N4P
Second: chain 5 N4K
The ratio to parent of the first is lower: 0.0246 for the first, 0.0286 for the second.

First: chain 5 N4T
Second: chain 5 L8M
The ratio to parent of the first is lower: 0.0402 for the first, 0.723 for the second.

First: chain 5 L8K
Second: chain 5 L8C
The ratio to parent of the first is lower: 0.352 for the first, 0.783 for the second.

Going from chain 5 L8Q to chain 5 L8F, the ratio to parent falls from 0.759 to 0.564.

Compared with chain 5 L8I, chain 5 L8P is lower in ratio to parent: 0.903 for the first, 0.48 for the second.

Going from chain 5 L8V to chain 5 L8N, the ratio to parent rises from 0.457 to 0.47.

First: chain 5 L8S
Second: chain 5 L8W
The ratio to parent of the first is higher: 0.515 for the first, 0.491 for the second.

Going from chain 5 L8Y to chain 5 L8E, the ratio to parent falls from 0.898 to 0.355.

Compared with chain 5 L8D, chain 5 L8G is higher in ratio to parent: 0.312 for the first, 0.564 for the second.

Compared with chain 5 L8R, chain 5 L8A is higher in ratio to parent: 0.276 for the first, 0.395 for the second.
